US12508311B2, “Fusion protein, and preparation method and use thereof” (SUN YAT-SEN UNIVERSITY, priority 2021, dated 2025)

Assays:
[1] = tested on: HCT116 cells; assay: Flow cytometry of tumor cell targeting, HCT116; format: cell-based, human; settings: tested as 60 nM TKD-Cy5, 1 hour, Lys 05 10 μM
Description: (§1) Wherein, the protein C18 column (25 cm×10 mm) was used, with sample injection of 2×400 μL each time, and gradient elution was carried out for 30 minutes, 0.1% TFA (trifluoroacetic acid) solution to MeCN (acetonitrile): H2O (0.1% TFA)=70:30, and a flow rate was 4 mL/min. • (4) Target color tape peaks were collected, and the retention time of a labeled polypeptide was longer than that of an unlabeled polypeptide. • (5) The TKD-Cy5 molecule was diluted to 60 μM, and stored in a PBS solution, and kept in the dark at −20° C. 2. […] The cells were treated with corresponding drugs, namely, in the experimental groups, the cells were treated with 60 nM TKD-Cy5 coupling molecule, and in the control groups, the cells were treated with the Cy5 single molecule with corresponding concentration. The lysosome inhibitor Lys 05 with the final concentration of 10 μM was added into the control groups and the experimental groups at the same time, and the final volume of the culture solution in each well was 1 mL. […] The cells were resuspended with the PBS buffer solution, and centrifuged again, and the supernatant was discarded. The operation was repeated for three times. Finally, the cleaned cells were resuspended in 0.2 mL of PBS, wrapped with foil paper, and then analyzed on the flow cytometer (company: BECKMAN COULTER; model: Cytoflex), with the fluorescence channel of APC-A.

[2] = tested on: signal pathway KRas/Raf/ERK/c-myc in KRas wild-type cells HT29; assay: Western blot of EGFR downstream signal pathway, HT29; format: cell-based, human; settings: 10 and 20 μg/mL, 24 hours, compared with control TKDm
Description: (§2) • (1) The colorectal cancer cells HCT116 (KRas G13D) and HT29 (KRas wt) were respectively spread in six-well plates, 500,000 cells per well. […] Then, the digestion was stopped with 1 mL of complete culture solution per well, the cell suspension was collected into a 1.5 mL EP tube, and centrifuged at the room temperature and 300 g for 3 minutes to collect cells. The cells were resuspended with 1 mL of PBS, and repeatedly centrifuged once. • (3) The supernatant was removed, 100 μL of lysate was added in each group (item number: P0013G; purchased from Beyotime Biotechnology Company). The cells were lysed on ice, vortically vibrated every 5 minutes, and centrifuged at 4° C. and 12,000 rpm for 30 minutes after being lysed for 30 minutes, and the supernatant was collected in a new 1.5 mL EP tube. • (4) The protein concentration was measured by the BCA method, and 20 μg of protein was taken from each group for SDS denaturation gel electrophoresis, transferred and blocked with 5% skim milk for 1 hour.

[3] = tested on: HT29 cells; assay: Flow cytometry of tumor cell targeting, HT29; format: cell-based, human; settings: tested as 60 nM TKD-Cy5, 1 hour, Lys 05 10 μM
Description: as §1

[4] = Toxic and side effects in mice (body weight, HE histopathology); format: in vivo; settings: 25 and 50 mg/kg intraperitoneal, seven times (3 weeks)
Description: • (1) Balb/c nude mice, female, 4 weeks to 5 weeks old, purchased from Guangdong Laboratory Animal Center and raised in Laboratory Animal Center of Sun Yat-sen University, were used in this experiment. […] The mice were administered once every three days at a fixed time. Meanwhile, changes in body state, mental state and weight of the mice were observed and recorded. • (3) After continuous administration for seven times (3 weeks), the mice were euthanized (killed by cervical dislocation). […] All the animal experiments were carried out within relevant regulations of animal ethics of Sun Yat-sen University.

[5] = tested on: HCT116 (KRas G13D); assay: Cell clone formation experiment, HCT116; settings: 10 and 20 μg/mL
[6] = tested on: signal pathway KRas/Raf/ERK/c-myc in KRas mutant-type cells HCT116; assay: Western blot of EGFR downstream signal pathway, HCT116; format: cell-based, human; settings: 10 and 20 μg/mL, 24 hours, compared with control TKDm
Description: as §2

[7] = tested on: KRas protein in SW1116 (KRas G12D); assay: Western blot of KRas degradation in SW1116 cells; format: cell-based
Source text: Cell lines used in this embodiment were SW1116 (KRas G12D), SW480 (KRas G12V) and H358 (KRas G12C), all of which came from ATCC and have item numbers of CCL-233, CCL-228 and CRL-5800 respectively. The treatment process of each cell was consistent with that described in the influence of administration time on degradation of KRas above.

B1: TKD: fusion protein: tumour-cell-penetrating peptide BR2, anti-KRas nanobody VHH and lysosome recognition peptide CTM; SEQ ID NO.4 (protein)
chain: RAGLQFPVGRLLRRLLRDVQLQESGGGLVQAGGSLRLSCVASGRTFSTYPTGWFRQAPGKEREFVARINLSGGITNYADSVKGRFTISRDNAKNTVYLQMNSLKPEDTAVYYCGGGSTTWAGGIPTNFDYWGQGTQVTVSSGRKFERQKILDQRFFE
[1]
  entry into cells (flow cytometry, Cy5 fluorescence): could specifically recognize and pass through the cell membrane to enter the colorectal cancer cells
[2]
  inhibition of activation of EGFR downstream signal pathway KRas/Raf/ERK/c-myc (western blot): could significantly inhibit the activation of the EGFR downstream signal pathway KRas/Raf/ERK/c-myc
[3]
  entry into cells (flow cytometry, Cy5 fluorescence): could specifically recognize and pass through the cell membrane to enter the colorectal cancer cells
[4]; once every three days, vs PBS
  changes in body weight: did not show obvious changes in body weight
[4]
  pathological analysis of lung, liver, spleen and kidney (HE): did not damage vital organs including lung, liver, spleen and kidney of the mice
[5]
  inhibition of clone growth: could significantly inhibit the growth
[6]
  inhibition of activation of EGFR downstream signal pathway KRas/Raf/ERK/c-myc (western blot): could significantly inhibit the activation of the EGFR downstream signal pathway KRas/Raf/ERK/c-myc
[7]
  degradation of mutated KRas protein (western blot): could induce the degradation of the KRas proteins in different mutation states, and the degradation effect was remarkable
